Test results as given in patent publication US6462173B1, “Inhibitors of phosphoserine and phosphothreonine-proline-specific isomerases” (Max-Planck-Gesellschaft zur Forderung der, priority 1997, dated 2002).

Key:
[1] = tested on: T1, AEPF-pNA
T1 sequence: AEPFNA

[2] = tested on: T2, AAPF (peptide substrate)
T2 sequence: AAPF

Substance: GST-Pin1^H59A
- PPIase activity [1]: The PPIase activity of Pin1^H59A was barely detectable against either peptide substrate
- PPIase activity [2]: The PPIase activity of Pin1^H59A was barely detectable against either peptide substrate
